PMC12525521, “N-Terminal Metal-Binding Domain of Arabidopsis IBR5 Is Important for Its in Planta Functions” (International Journal of Molecular Sciences, 2025)
“And” between values parts separate entries of the source, which are not always exact repeats. Equal values may be shown once.

Biological target: the molecule itself
Experiment: SEC; FPLC on HiPrep 26/60 Sephacryl S-300 HR after Ni-NTA purification; 100 mM Tris-HCl pH 8.0, 150 mM NaCl; sizes estimated from a standard curve with the Bio-Rad Gel Filtration Standard; His-SUMO tag kept

Row | Protein | stoichiometry N
1 | SUMO-AtIBR5-p (N-terminal 6x His-SUMO tag fused to aa 48-257 of AtIBR5, only the DSP_plant_IBR5-like domain) (domain or fragment, Arabidopsis thaliana, UniProt Q84JU4 48-257, looked up, One glycine residue stands as a linker between the 6x His-SUMO tag and the AtIBR5 stretch; also called N-terminally truncated AtIBR5; source: E. coli BL21 HiControl, purified (Ni-NTA, SEC); not shown: His6, N-terminal, kept; SUMO, N-terminal, kept) AFPSEILPEFLYLGSYDNASRSELLKTQGISRVLNTVPMCQNLYRNSFTYHGLDNEKVLQFDDAIKFLDQCEKDKARVLVHCMSGKSRSPAVVVAYLMKRKGWRLAESHQWVKQRRPSTDISPEFYQQLQEFEQGIFGSEMMSAMNINDAPTFGFGFPKIDNQAQAPVFNNAPTSSIFSSPASSIPPQEFTFGATPPKPTTGGDIAMDGS | 2 and 4
2 | SUMO-AtIBR5 (N-terminal 6X His-tagged SUMO fused to the 257-amino acid-long Arabidopsis thaliana indole-3-butyric acid response 5) (enzyme, UniProt Q84JU4 1-257, looked up, AtIBR5, dual-specificity phosphatase, Arabidopsis thaliana, UniProt Q84JU4, AT2G04550; One glycine residue (codon GGU) stands as a linker between the 6X His-SUMO tag and AtIBR5; Cloned with the Expresso T7 SUMO system (pETite N-His SUMO Kan vector); Expected monomer about 42 kDa; also called SUMO-AtIBR5 wild-type protein; source: E. coli BL21 HiControl, purified (Ni-NTA, SEC); not shown: His6, …) MRKRERENPCSICGHYHKYEEGEVCGVCGHCMPVSSDTVAPQQVHVSAFPSEILPEFLYLGSYDNASRSELLKTQGISRVLNTVPMCQNLYRNSFTYHGLDNEKVLQFDDAIKFLDQCEKDKARVLVHCMSGKSRSPAVVVAYLMKRKGWRLAESHQWVKQRRPSTDISPEFYQQLQEFEQGIFGSEMMSAMNINDAPTFGFGFPKIDNQAQAPVFNNAPTSSIFSSPASSIPPQEFTFGATPPKPTTGGDIAMDGS | 4 and 2
3 | SUMO-AtIBR5-q (quadruple mutant of SUMO-AtIBR5, all four conserved cysteine residues substituted with glycine) (enzyme, Arabidopsis thaliana, UniProt Q84JU4 1-257, looked up, One glycine residue stands as a linker between the 6x His-SUMO tag and AtIBR5; also called quadruple AtIBR5 mutant; C10G C13G C25G C28G; source: E. coli BL21 HiControl, purified (Ni-NTA, SEC); not shown: His6, N-terminal, kept; SUMO, N-terminal, kept) MRKRERENPGSIGGHYHKYEEGEVGGVGGHCMPVSSDTVAPQQVHVSAFPSEILPEFLYLGSYDNASRSELLKTQGISRVLNTVPMCQNLYRNSFTYHGLDNEKVLQFDDAIKFLDQCEKDKARVLVHCMSGKSRSPAVVVAYLMKRKGWRLAESHQWVKQRRPSTDISPEFYQQLQEFEQGIFGSEMMSAMNINDAPTFGFGFPKIDNQAQAPVFNNAPTSSIFSSPASSIPPQEFTFGATPPKPTTGGDIAMDGS | 2 and 4
